Where two headings read alike, the source gives them in different places.
Molecular target: T1, ApoER2 (Homo sapiens, UniProt Q14114)
T1 construct: purchased R&D 3520‐AR
T1 sequence (Q14114 33-963): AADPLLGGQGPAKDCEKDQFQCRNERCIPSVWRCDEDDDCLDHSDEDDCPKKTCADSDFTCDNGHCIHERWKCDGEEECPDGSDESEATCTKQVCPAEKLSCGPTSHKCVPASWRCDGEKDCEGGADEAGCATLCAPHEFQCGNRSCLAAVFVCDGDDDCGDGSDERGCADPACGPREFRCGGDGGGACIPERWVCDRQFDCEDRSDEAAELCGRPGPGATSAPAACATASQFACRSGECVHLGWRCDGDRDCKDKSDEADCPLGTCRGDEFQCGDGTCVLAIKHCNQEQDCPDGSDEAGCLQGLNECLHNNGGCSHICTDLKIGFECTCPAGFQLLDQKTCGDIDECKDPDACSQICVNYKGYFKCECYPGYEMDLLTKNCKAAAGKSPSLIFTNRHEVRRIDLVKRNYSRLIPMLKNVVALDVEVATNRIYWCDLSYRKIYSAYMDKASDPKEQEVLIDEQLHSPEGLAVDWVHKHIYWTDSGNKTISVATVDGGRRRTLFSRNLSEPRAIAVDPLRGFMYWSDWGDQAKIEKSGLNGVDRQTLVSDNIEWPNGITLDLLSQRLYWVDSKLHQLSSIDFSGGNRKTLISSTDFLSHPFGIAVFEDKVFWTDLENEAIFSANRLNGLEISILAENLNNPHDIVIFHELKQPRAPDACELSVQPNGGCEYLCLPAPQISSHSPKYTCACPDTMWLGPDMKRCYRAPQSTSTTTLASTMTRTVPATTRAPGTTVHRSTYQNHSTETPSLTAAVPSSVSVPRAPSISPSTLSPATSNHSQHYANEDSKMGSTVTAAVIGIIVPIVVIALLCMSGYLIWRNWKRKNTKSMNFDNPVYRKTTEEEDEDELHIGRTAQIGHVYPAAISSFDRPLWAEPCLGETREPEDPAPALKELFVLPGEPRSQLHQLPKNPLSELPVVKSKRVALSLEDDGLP
Assay: Biolayer interferometry (BLI) binding of ApoER2 and sclerostin / sclerostin loop2
Protocol: The interaction of full‐length (FL)/truncated ApoER2 with full‐length (FL) /truncated sclerostin in macrophages (RAW264.7) were determined by pull‐down assay and Co‐IP assay. The binding affinity of ApoER2 to FL sclerostin and sclerostin loop2 were determined by biolayer interferometry (BLI) analysis. Moreover, the binding of sclerostin to ApoER2 on macrophages (RAW264.7) was examined by confocal microscopy.
Biolayer interferometry (BLI) analysis was performed on the Biomolecular Interaction Analyzer (ForteBio, Octet RED96e). To determine the binding affinity between ApoER2 and sclerostin, the ApoER2 protein (R&D, 3520‐AR) was biotinylated using 10 mM EZ‐Link Sulfo‐NHS‐LC‐LC‐Biotin (Thermo Scientific, 21 343) in a molar ratio of 1:20 for 2 h at 4 °C. The Slide‐A‐Lyzer Dialysis Cassettes (Thermo Scientific, 66 382) were used for excess biotin removal.^[ [61] ^] […] (SA) tray biosensors (Sartorius, 18‐5019) were used to load biotin‐ApoER2 proteins. Biosensors were pre‐wet for 10 min using 200 µL PBS containing 0.02% Tween 20 (v/v) in a 96‐well plate. […] Raw data were analyzed using Data Analysis Software (ForteBio, v8.1). All Kd values were calculated after deducting the non‐specific binding between the biosensors and the samples.^[ [62], [63] ^]

- Kd (Figure S6B, Sclerostin – ApoER2, read-out: Kd, binding of sclerostin to ApoER2): 2.1 nM
- Kd (Octet RED96e, biotin‐ApoER2 on streptavidin biosensors or His‐ApoER2 on HIS1K biosensors, non‐specific binding deducted, Figure 6B, read-out: Kd, binding of ApoER2 to sclerostin or sclerostin loop2): 3.8 nM
Substance: sclerostin: recombinant human/mouse full‐length sclerostin protein

Source: article PMC12884772, “Macrophagic Sclerostin Loop2‐ApoER2 Interaction Required by Sclerostin for Cardiovascular Protective Action” (Advanced Science, 2025)
